From the nanobody polyreactivity screen of Harvey et al. (2022) come the findings set out here.

The data set is described as follows: yeast display, Sf9 membrane polyspecificity reagent, FACS + sequencing; frameworks hold sequencing errors. The procedure, abridged:
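Synthetic nanobody libraries on Saccharomyces cerevisiae BJ5465 were galactose-induced for 36–48 hours, stained 1 hour at 4 °C with 10% biotinylated, detergent-solubilized Sf9 membrane reagent and enriched on streptavidin microbeads. FACS then separated cells into low and high (top ~1%) gates by anti-HA (expression) and streptavidin (reagent binding) fluorescence. Genes were colony-PCR amplified, MiSeq 2 × 250 sequenced and CDR-length filtered. A clone's polyreactivity label is that of its gate of origin.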
Regarding “QVQLVESGGGLVQAGGSLRLSCAASGSTFAIYAMGWYRQAPGKERELVAAISKSGGSTYYADSVKGRFTISRDNAKNTVYLQMNSLKPEDTAVYYCARRQYAFGPYGFYYWGQGTQVTVSS”, the “polyreactivity (PSR sort gate)” value was “high polyreactivity”.
The value for “QVQLVESGGGLVQAGGSLRLSCAASGRIFRRYAMGWYRQAPGKEREFVAAITKSGGSTYYADSVKGRFTISRDNAKNTVYLQMNSLKPEDTAVYDCNAYVIRALGYGGYDYWGQGTQVTVSS” was “high polyreactivity”.
For “QVQLVESGGGLVQAGGSLRLSCAASGRIFAGYAMGWYRQAPGKERELVAGISNRGGSTYYADSVKGRFTISRDNAKKTVYLQMNRLKPEDTAVYYCAVRRRSLGGYWGQGTQVTVSS”, the “polyreactivity (PSR sort gate)” value is given as “high polyreactivity”.
For “QVQLVESGGGLVQAGGSLRLSCAASGITFGRNTMGWYRPAPGKERELVAAIDSGGNTYADSVKGRFTISRDNAKNTVYLQMNSLKAEDTAVYYCAVDGGEFSSYGYWGQGTQVTVSS”, the “polyreactivity (PSR sort gate)” value is “low polyreactivity”.
The value for “QVQLVESGGGLVQAGGSLRLSCAASGSTFSSYAMGWYRQAPGKERELVAAISKHAGSTYYADSVKGRFTISRDNAKNTVYLQMNSLKPEDTAVYYCAKDSSVQAYYGYWYTSTDDYWGQGTQVTVSS” was “low polyreactivity”; that for “QVQLVESGGGLVQAGGSLRLSCAASGRIFKYYAMGWYRPAPGNETELVAAIRWSDSTYYADSVKGRFTSSRDNAKNTVYLQMNSLQPEDTAVYYCAALYRHPQEYRVGDYDYWGQGTQVTVSS” was “low polyreactivity”.
Regarding “QVQLVESGGGLVQAGGSLGLSCAASGIIFGTYGMGWYRQAPGKERELVAAITTRGSSTYYADSVKGRFTISRDNAKNSVYLQMNSLKPEDTAVYYCAAVSVRRNRMDSWGQGTQVTVSS”, the “polyreactivity (PSR sort gate)” value was “high polyreactivity”.
Turning to “QVQLQESVGGLVQAGRSLRLSCAASGYISHADEMGWYRQAPGKEHELVASISNGGSTNYADSVKGRFTISRDNANNTVYLQMNSLKSVDTAVYFCAAWTGQVDIHYYWGQGTQVTVSS”, the “polyreactivity (PSR sort gate)” value was “low polyreactivity”.
As to “QVQLVESGGGLVQAGGSLRLSCAASGLTFYRNAMGRYRQAPGKERELVAAITASGGRTYYADSVKGRFTISRDNAKNTVYLQMNSLKPEVTAVYYCAADGKVQGGYYWGQGTQVTVSS”, the “polyreactivity (PSR sort gate)” value is given as “high polyreactivity”.
As for “QVQLVESGGGLVQAGGSLPLSCAASGRIYDSYAKGWYIQAPGKERELVAAISFGGDTYYADSVKGRFTISRDNAKNTVYLQMNSLKPEDTAVYYCAKDNPAALFDSWGQGTQVTVSS”, the “polyreactivity (PSR sort gate)” value is “low polyreactivity”.
The result for “QVQLVESGGGLVQAGGSLRLSCAASGRIFRYYVMGWYRQAPGKERELVASITRVGRTNYADSVKGRFTISRDNAKNTVYLQMNSLKPEDTAFYYCAADVWWSTYRVTDDYWGQGTQVTVSS” reads “high polyreactivity”; that for “QVQLVESGGGLVQAGGSLRLSCAASGRTFYYNGMGWYRQAPGKERELVATITNGGSTNYADSVKGRFTISRDNAKITVYLQMNSLKPEETAVYYCAKTLASDCYDYWGQGTQVTVSS”, “low polyreactivity”; that for “PVQLVESGGGLVQAGGSLRLSCAASGFISQDNAMGWYRQAPAKERELVATISGSGGITYYADSVKGRFTISRANAKTTVYVQMNSLKPEDTAVYYCNNEISYLSWGYDYWGQGTQVTVSS”, “low polyreactivity”.
“QVQLVESGGGLVQAGGSLRLSCAASGRILGRYAMGWYRQAPGKERELVATITSGDDTNYADSVKGRFTISRDNAKNTVYLQMNSLKPEDTAVGYWGQGTQVTVSS”: the “polyreactivity (PSR sort gate)” value is recorded as “low polyreactivity”.
Regarding “QVQLVESGGGLVQAGGSLRLSCAASGSTFAQNTMGWYRQAPGKERELVATISDGGGSTYYADSVKGRFTISRDNAKNTVYLQMNSLKPDDTAVYYCNTDRFWPSDYWGQGTQVTVSS”, the “polyreactivity (PSR sort gate)” value is listed as “low polyreactivity”.
The result for “QVMLVESGGGLVQAGGSLRLSCAASGSIFKSNAMGWYRQAPGKERELVAAITRSGGSTYYADSVKGRFTISRDNAKYTVYLQMNSLKPEDTAVYYCARRPGKGNNYWGKGTQVTVSS” reads “high polyreactivity”; that for “QVQLVESGGGLVQAGGSLRLSCAASGRTFARYAMGWYRQAPGKERELVAAISWSGGRTYYADSVKGRFTISRDNAKNTVYLQMNSLKPEDTAVYYCAASLYRRQMDHWGQGTQVTVSS”, “high polyreactivity”; that for “QDQLVESGGGLVQAGGSLRLSCAASGLIFVRYAMGWYRQAPGKERELVATITWSGGTTYADSVKGRFTISRDNAKKTVYLQMNSLNPEDTAVYYCAVASGPELDYWGQGTQVTVSS”, “low polyreactivity”.
For the sequence “QVQLVESGGGLVHAGGSLRLSCAASGFIFYYNAMGWYRHAPGKERELVAGISRSAGSTYYADSVKGRFTISRDNAKNSVYLQMNSLKPEDTAVDYCAARYLSYITGTSYYWGQVTQVTVSS”, the “polyreactivity (PSR sort gate)” value was “low polyreactivity”.
The value for “QVQLVESGGGLVQAGGSLRLSCAASGSIFLVYAMGWYRQAPGKERELVAAIDWSDTDTYYADSVKGRFTISRDNAKNTFYLQMNSLKPEDTAVYYCAADHVGVDFEYWGQGTQVTVSS” was “low polyreactivity”; that for “QVQLVESGGGLVQAGGSLRLSCAASGSTFRSYARGWYRQAPGKERELVAVISKRGGSTYYADSVKGRFTISRDNAKNTVYLQMNSLKPEDTAVYYCAADVYRYYAPNDYYWGQGTQVTVSS” was “high polyreactivity”.
For “QVQLVESGGGLVQAGGSLRLSCAASGFTLGLYAMGWYRQAPGKERELVAAITAGGDSTDYADSVKGRFTISRDNAKNTVYLQMNSLKPEDTAVYYCAAPSYWLYYYILDSSDYWGQGTQVTVSS”, the “polyreactivity (PSR sort gate)” value is “high polyreactivity”.
The result for “QVQLVESGGGLVQAGGSLRLSCAASGYISRYNTMGWYRHAPGKERELVAAITWSGGSTYADSVKGRFTISRDNAKNTVYLQMNSLKQEDTAVYYCAAGAYIWDNYSYRWYDYWGQGTQVTVSS” reads “high polyreactivity”.
The value for “QVQLVESGGGLVQAGGSLRLSCAASGSILSYNTMGWYRHAPGKEREFVACITYSGSRTYYADSVKGRFTISRDKAKNTDYLQMNSLKPEDTAVYYCAKRNYYLLYWGQGTQVTVSS” was “high polyreactivity”.
“QVQLVESGGGLVQAGGSLRLSCAASGLIFGGNAMGWYRQAPGKERELVAAISRSTGRTYYADSVKGRFTISRDNEKNTVYLQMNSLKPEDTAVYYCNAVGYAFPSYDSWGQGTQVTVSS”: the “polyreactivity (PSR sort gate)” value is on record as “high polyreactivity”.
For the sequence “QVQLVESGGGLVQAGGSLRLSCAASGLISYHYAMGWYRQAPGKERELVASISYTGGSTFYADSVKGRFTISRDNAKNTVYFQMNSLKPEDTAVYYCAAYRIWRPSYYYWGQGTQVTVSS”, the “polyreactivity (PSR sort gate)” value was “high polyreactivity”.
In the case of “QVQLVDSGGGLVQAGGSLRLSCAASGNIFRANAMGWYRQAPGKERELVAAIRWRGVGTYYADSVKGRFTISRDYAKNTVYLQINSLKPEDTAVYYCAAYVKTGAYDYWGQGTLVTVSS”, the “polyreactivity (PSR sort gate)” value is “high polyreactivity”.
As for “QVQLVESGGGLVQAGGSLRLSCAASGFIFVGNVMGWYRQAPGKERELVARISTSGGSTYYADSVKGRFTISRDNAKNTVYLQMNSLKPEDTAVYYCAARRRTGREYGYWGQGTQVTVSS”, the “polyreactivity (PSR sort gate)” value is reported as “high polyreactivity”.
With “QVQLVDSGGGLVQAGGSLRLSCAASGSIIGLYAMGWYRQAPGKERELVAAITTTGGSTYYADSVKGRFTISRDNAKNTVYLQMNSLKPEDTAVYYCNADYVAYGPEYDYWGQGTQVTVSS”, the “polyreactivity (PSR sort gate)” value is “low polyreactivity”.
On to “QVQLEESGGGLVQAGGSLRLICAASGIIFYVNAMGWYRQAPGKERELVAAITFGGDSTYYADSVKGRFTISRDNAKNTVYLQMNSLKPEDTAVYYCATDGDPAYPEMEYWGQGTQVTVSS”, for which the “polyreactivity (PSR sort gate)” value was “low polyreactivity”.
Consider “QVQLQESGGGLVQAGGSLRLSCAASGSIFYEFYMGWYRQAPGKERELVAAIANGASTYYADSVKGRFTISRDNSKNTVYLQMSSLKPEDTAVYYCAVNTTSDIDYIYWGQGTQVNVSS”, for which the “polyreactivity (PSR sort gate)” value was “low polyreactivity”.
The result for “QVQLVESGGGLVQAGGSLRLSCAASGRIFRYYAMGWYRQAPGKERELVAAISDSSGSTYYADSVKGRFTISRDNAKNTVYLQMNSLKPEDTAVYYCRYYFGSGFYYWGQGTQVTVSS” reads “high polyreactivity”; that for “QVQLVESGGGLVQAGGSLRLSCAASGRIFGHNAMGWYRQAPGKERELVARISSTGSTKYADSVKGRFTISRDNAKNTVYLQMNSLKPEDTAVYYCAAYIIRWKGSSYYWGQGTQVTVSS”, “high polyreactivity”.
Turning to “QVQLVESGGGLVQAGGSLRLICAASGRIFWSNTMGWYRQAPGKERELVAAISGRGGSTYYADSVKGRFTISRDNAKNTVYLQMNSLKPEDTAVYYCAAKPTRSRKIYEYWGQGTQVTVSS”, the “polyreactivity (PSR sort gate)” value is “low polyreactivity”.
On to “QVQLVESGGGLVQAGGSLRLRCAASGRIFTTYAMVWYRQAPGKERELVADITTGGGTYYADSVKGRFTISRDNAKNTVYLQMNSLKPEDTAVYYCNADYSADYYWYYYWGQGTQVTVSS”, for which the “polyreactivity (PSR sort gate)” value is on record as “low polyreactivity”.
For the sequence “QVQLVESGGGLVQAGGSLRLSCAAYGRIFLLYAMGWYRQAPGKERELVAGISIGGSTNYADSVKGRFTISRDNAKNTVYVQMNSLKPEDTAVYYCNAKRYFASRKNGYYYWGQGTQVTVSS”, the “polyreactivity (PSR sort gate)” value is recorded as “high polyreactivity”.
Consider “QVQLVESGGGLVQAGGSLRLSCAASGSYFTYNRMGRYRQAPGKEREFVAANTWTGGSTYADSVKGRFTISRDNAKYTVYLQMNSLKPEDTAVYYCAAVRRFSWYTPVTTRRYYYWGQGTQVTVSS”, for which the “polyreactivity (PSR sort gate)” value was “high polyreactivity”.
With “QVHLVESRGGLVQAGGSLSLSCAASGITFYIYAMGWYRQAHGKERELVAAFTTSGDSTYYADSVKGRFTISRDNAKNTVYLQMNSLKPEDTAVYDCAAEYWYTYSWGQGTQVTVLS”, the “polyreactivity (PSR sort gate)” value is “low polyreactivity”.
Turning to “QVQLVESGGGVVQAGGSLRLSCAASGSIFYYYAMGWYRQAPGKERELVASITHTGGSTNYADSVKGRFTISRDNAKNTVYLQKNSLKPEDTAVYYCAAEYWNDNYSDPLYDYWGQGTQVTVSS”, the “polyreactivity (PSR sort gate)” value is given as “low polyreactivity”.
Turning to “QVQLVESGGGLVQAGGSLRLSCAASGSTFYFNAMGWSRQAPGKERELVAAIDWSGGSTYYADSVKGRFTISRDNAKNTVYLQMNSLKPEDTAVYYCITVPNRARISTLYGYDYWGQGTQVTVSS”, the “polyreactivity (PSR sort gate)” value was “low polyreactivity”.
As for “QVQLVESGGGLVQAGGSLRLSCAASGSIFRWYAMGWYRQAPGKERELVAAITWSASRTYYADSVKGRFTISRDNAKNTVYLQMNSLKPEDTAVYYCAKRGWSSVYFHGGFGYKLYDYWGQGTQVTVSS”, the “polyreactivity (PSR sort gate)” value was “low polyreactivity”.
